Measurements: IntAct's records for PubMed 18617507

B1: Serine/threonine-protein kinase VRK1 (Homo sapiens), Q99986 (parent)
chain: MPRVKAAQAGRQSSAKRHLAEQFAVGEIITDMAKKEWKVGLPIGQGGFGCIYLADMNSSESVGSDAPCVVKVEPSDNGPLFTELKFYQRAAKPEQIQKWIRTRKLKYLGVPKYWGSGLHDKNGKSYRFMIMDRFGSDLQKIYEANAKRFSRKTVLQLSLRILDILEYIHEHEYVHGDIKASNLLLNYKNPDQVYLVDYGLAYRYCPEGVHKEYKEDPKRCHDGTIEFTSIDAHNGVAPSRRGDLEILGYCMIQWLTGHLPWEDNLKDPKYVRDSKIRYRENIASLMDKCFPEKNKPGEIAKYMETVKLLDYTEKPLYENLRDILLQGLKAIGSKDDGKLDLSVVENGGLKAKTITKKRKKEIEESKEPGVEDTEWSNTQTEEAIQTRSRTRKRVQK

Variants of: B1
Conditions: with ran_human RAN

Variant	effect of a mutation on the interaction
MPRVKAAQAGRQSSAKRHLAEQFAVGEIITDMAKKEWKVGLPIGQGGFGCIYLADMNSSESVGSDAPCVVKVEPSDNGPLFTELKFYQRAAKPEQIQKWIRTRKLKYLGVPKYWGSGLHDKNGKSYRFMIMDRFGSDLQKIYEANAKRFSRKTVLQLSLRILDILEYIHEHEYVHGDIEASNLLLNYKNPDQVYLVDYGLAYRYCPEGVHKEYKEDPKRCHDGTIEFTSIDAHNGVAPSRRGDLEILGYCMIQWLTGHLPWEDNLKDPKYVRDSKIRYRENIASLMDKCFPEKNKPGEIAKYMETVKLLDYTEKPLYENLRDILLQGLKAIGSKDDGKLDLSVVENGGLKAKTITKKRKKEIEESKEPGVEDTEWSNTQTEEAIQTRSRTRKRVQK [K179E]	decreasing interaction
